{"source": "IntAct's records for PubMed 23395371", "parents": {"B1": {"name": "Ras-related protein Rab-7L1 (Rattus norvegicus (Rat)), Q63481 (parent)", "chain": "MGSRDHLFKVLVVGDAAVGKTSLVQRYSQDSFSKHYKSTVGVDFALKVLQWSDSEMVRLQLWDIAGQERFTSMTRLYYRDASACVIMFDVTNATTFSNSQRWKQDLDSKLTLPSGEPVPCLLLANKSDLSPWAVSRDQIDRFSKENGFTGWTETSVKENKNINEAMRVLVEKMMNNSREDIMSSSTQGNYINLQTKPSPGWTCC"}}, "data": [{"variants_of": "B1", "details": "with lrrk2_human LRRK2, Q5S007", "values": [{"variant": "T21N", "effect of a mutation on the interaction": "decreasing interaction"}, {"variant": "Q67L", "effect of a mutation on the interaction": "decreasing interaction"}]}]}
